Laboratory results published in patent US20260125484A1 (GMAX BIOPHARM, published 2026).

T1: human endothelin receptor A (hETAR) (human, UniProt P25101 21-427)
T1 sequence: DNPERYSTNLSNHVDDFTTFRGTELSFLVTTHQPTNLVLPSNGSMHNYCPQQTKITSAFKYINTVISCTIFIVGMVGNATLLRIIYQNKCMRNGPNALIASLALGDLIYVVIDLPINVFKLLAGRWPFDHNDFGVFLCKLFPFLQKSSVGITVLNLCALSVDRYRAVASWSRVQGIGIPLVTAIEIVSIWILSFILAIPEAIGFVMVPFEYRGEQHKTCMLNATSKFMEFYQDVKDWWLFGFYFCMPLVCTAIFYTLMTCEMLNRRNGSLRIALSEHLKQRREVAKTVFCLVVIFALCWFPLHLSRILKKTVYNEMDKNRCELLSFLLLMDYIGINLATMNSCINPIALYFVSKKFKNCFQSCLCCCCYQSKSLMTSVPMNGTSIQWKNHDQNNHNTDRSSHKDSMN


Tests used:
[1] = target: T1, human endothelin receptor A (hETAR); experiment: cell-based or functional assay
[2] = target: T1, human endothelin receptor A (hETAR); experiment: FACS on CHO-DHFR-ETAR cells
Procedure: 10⁵ CHO-DHFR-hETAR cells were digested and collected with PBS containing 10 mM EDTA, separately added into 1.5 mL EP tubes, the supernatant was discarded after centrifugation, and the negative control sample was resuspended in a flow loading buffer (PBS, 2% FBS). Positive treatment group cells in each tube were added with 200 μL of the antibody supernatant, and incubated at room temperature; after the completion of the incubation, the cells were centrifuged at 1500 rpm, the supernatant was discarded, the cell precipitate was washed once with a flow loading buffer, and centrifuged again, and the cells were resuspended; 1:50 diluted FITC labeled goat anti-mouse fluorescent secondary antibody (BD Pharmingen) was added to the cell resuspension solution at 200 μL/well, and the cells were incubated at room temperature for 30 min in the dark; and the cells were centrifuged, the supernatant was discarded, the cell was washed once with a flow loading buffer, and centrifuged, the cell precipitate was resuspended with a flow loading buffer for on-machine detection. The supernatant expressing recombinant anti-ETAR functional antibody was specifically bound to CHO-DHFR-ETAR cells expressing ETAR. The gray peaks and dotted line peaks were negative controls; and the solid line peak corresponding to the hybridoma cell supernatant shifted obviously to the right.

Binder | IC50, calcium flux inhibition curve [1] [nM] | binding result [2]
ETAR antibody A-9 (antibody, mouse IgG1, V domains shown) VH: EVQLQQPGGGLVQPGGSLTLSCATSGFTFSSYGMSWVRQTPAKRLELVATISTNGATANYPDSVKGRFTISRDNAKSTLYLQMRSLKSEDTAMYYCATEKGAMGYWGQGTSVTVSS VL: DVLMTQTPLSLPVSLGDQASISCRSSQNIVHSTGNTYLEWYLQKPGQSPKLLIYKVSNRFSGVPNRFRGSGSGTDFTLKITRVEAEDLGIYYCFQGSHFPFTFGSGTKLEIKR | 88 | –
ETAR antibody A-7 (antibody, mouse IgG1, V domains shown, also called L7H7) VH: EVHLVESGGGLVQPGGSLKLSCAASGFTFSTYGMSWVRQTPDKRLELVATINTNGGTTYYRDSVKGRFTISRDNAKNTLYLQMSSLKSDDTAMYYCARDYGAMDYWGQGTSVTVSS VL: DVLMTQTPLSLPVSLGDHASISCRSSQYIVHSTGTTYLEWYLQKPGQSPQLLIYKVSNRFSGVPDRFTGSGSGTDFTLRISRVEAEDLGVYFCFQGSHFPFTFGSGTKLEIKR | – | binds

Other lines, results leading:

IC50, calcium flux inhibition curve [1] [nM] | binding result [2] | Binder
– | binds | ETAR antibody A-2 (antibody, mouse IgG1, V domains shown, also called L2H2) VH: QIQLVQSGAELAKPGASVRMSCETSGYTFTSYWIHWIKERPGQGLEWIGYINPDTDYSEYNQKFKDKARLTADKSSTTAYMELNSLTFDDSAVYYCASAGYYFFDFWGQGTTLTVSS VL: DIQMTQSPASLSTSVGETVTITCRASENIYSYLAWYQQRQGKSPHLLVNNAKTLAEGVPSRFSGSGSGTHFSLRISGLQPEDFGSYYCQHHYGIPFTFGGGTKLSIKR
– | binds | ETAR antibody A-12 (antibody, mouse IgG1, V domains shown, also called L12H12) VH: EVKLVESGGRLVQPGNSLRLSCATSGFTFSDYYMSWVRQTPGRALEWLSFIRNRANGYTTEYSASVKGRFTISRDNSQSILYLHMSTLRPEDSATYYCVRDSYHYGYFDVWGAGTTVTVSS VL: EIQMTQTPSSLSASLGDRVTITCSASQGINNYLNWYQQKPGGKTRLLIYYTSTLQSGVPSRFSGSGSGTHYSLTISNLEPEDIATYYCQQFSKLRTFGGGTRLEIKR
